Reference: US20070036810A1, “Cyclic amp response element activator proteins and uses related thereto” (priority 2003, published 2007)

Experiments:
human IL-8 promoter = test: pGL2-IL-8p-Luc reporter inducibility in HEK 293 cells; format: cell-based; conditions: expression construct co-transfected into HEK 293 cells, 48 hours post transfection
Method: A luciferase reporter controlled by a 1.5 kB IL-8 promoter containing fragment of human IL-8 promoter was tested for inducibility by known regulators of cytokine-mediated gene expression. pNF-κB-Luc (BD Biosciences) and pGL2-IL-8p-Luc reporters were co-transfected into HEK 293 cells with expression constructs encoding known activators of the NF-κB pathway, truncated MEKK (AA 360-672) (Stratagene) and a full length TRAF6 cDNA made according to conventional methods using a proprietary clone collection. Cells co-transfected with empty pCMV-Sport6 vector were either left untreated or treated with TNFα (50 ng/ml, for 16 hours). Luciferase activity was measured 48 hours post transfection. The pNF-κB-Luc reporter was used as a positive control.

[1] = system: minimal promoter linked to multiple copies of CRE; test: CRE-Luc reporter co-transfection assay with the CREAP gene family; format: cell-based; conditions: for CRE: level of expression of luciferase relative to empty vector: cotransfection, relative to empty pCMV-SPORT6 vector
Description: (§1) The entire amino acid sequence for CREAP1 was used in a BLASTP search of a public NCBI database. Initially two public domain cDNAs (XM—117201 and FLJ00364) were identified that have significant homology to the CREAP1 coding region. The nucleotide sequence of XM—117201 was used in a BLASTN search (Altschul S. F. et al., Nucleic Acids Res. 25:3389-3402 (1997)) of a proprietary cDNA library EST database and 4 clones were identified that represent XM—117201 public sequence. All 4 clones were functionally tested upon co-transfection with the CRE-Luc and IL-8p-Luc reporters initially found to be induced by CREAP using methods similar to those disclosed above. Briefly, trypsinized HeLa cells are resuspended in complete growth media at 6×10^4 cells/ml and distributed into white 96-well plates (Costar) in the volume of 100 μl per well. Cells are left overnight in a tissue culture incubator at 37° C. and 5% CO2. pGL3B-IL-8p-Luc reporter plasmid or CRE-Luc reporter (BD Biosciences) as well as tested cDNAs are resuspended in OptiMEM I low serum media (GIBCO BRL) at 25 ng/ml. The reporter plasmids and cDNAs are then distributed into 96-well clean PCR plates (ABGene) at 4 μl/well and 3 μl/well respectively. Mixture containing Fugene 6 reagent (Roche Applied Bioscience) at 1.5 μl per transfection and pRL-SV40 (Promega) plasmid 20 ng per transfection is added in the volume of 10 μl per well of the 96-well PCR plate containing prediluted cDNAs. […]
(§2) The activity of firefly and Renilla luciferase is measured using the DualGlo Luciferase Assay System (Promega) following the protocol supplied by the manufacturer. Briefly, 115 μl of freshly reconstituted luciferase reagent is added to each well of the 96-well tissue culture plates with a Multidrop 384 and, after 15 minutes incubation, luminescence is read on a LUMINOSKAN Ascent Luminometer (Thermo Labsystems) with a 400 msec integration time. Subsequently, 115 μl of Stop-and-Glo reagent is added to each well of the 96-well tissue culture and, after 15 minutes incubation, luminescence is read on a LUMINOSKAN Ascent Luminometer with a 200 msec integration time. The activity of each tested cDNA is measured as a ratio of the corresponding firefly and Renilla luciferase activities.
To investigate this, the ability of CREAP2 and CREAP3 to activate gene expression driven by the IL-8 promoter and a CRE-dependent promoter was tested in co-transfection assays as disclosed above. Briefly, the levels of expression of a luciferase reporter driven by either the IL-8 promoter or a minimal promoter linked to 4 copies of CRE were determined after cotransfection with either an empty pCMV-SPORT6 expression vector or with the same vector carrying a cDNA for CREAP1, CREAP2 or CREAP3. […]

Interleukin-8 promoter = test: IL-8 promoter luciferase reporter co-transfection assay with the CREAP gene family; format: cell-based, human; conditions: cotransfection, relative to empty pCMV-SPORT6 vector
Description: as §1, with “respectively.” for “respectively. Mixture containing Fugene 6 reagent (Roche Applied Bioscience) at 1.5 μl per transfection and pRL-SV40 (Promega) plasmid 20 ng per transfection is added in the volume of 10 μl per well of the 96-well PCR plate containing prediluted cDNAs.”
as §2, with “activities. […]” for “activities.”

[2] = system: GAL4 DNA binding sites (UAS-Luc, pFR-Luc reporter); test: GAL4 DNA binding domain fusion transactivation assay (pFR-Luc) in HEK 293 cells; format: cell-based; conditions: normalized to pCMV-BD vector
Description: To determine if CREAP proteins can act as a transcription activators, various regions of all 3 CREAP homologs (amino acids 300-650 of CREAP1, amino acids 296-694 of CREAP2 and amino acids 335-635 of CREAP3) were expressed as fusion proteins with the DNA binding domain of GAL4 and tested for the ability to activate expression of a reporter gene linked to GAL4 protein binding sequences (UAS-Luc (pFR-Luc reporter). Briefly, the indicated regions of CREAP1, CREAP2 and CREAP3 were amplified by PCR and subcloned in frame into pCMV-BD vector (Stratagene) encoding GAL4 DNA binding domain. Selected plasmids and empty vector (pCMV-SPORT6) were transfected into HEK 293 cells at 75 ng/well using Fugene6 transfection reagent (Roche) as described above. pFR-Luc reporter (Stratagene) encoding firefly luciferase gene driven by minimal promoter linked to 5 concatamerized GAL4 binding sites (UAS) was co-transfected at 100 ng/well. As a positive control, the reporter was also co-transfected with a plasmid encoding GAL4-CREB fusion protein (Stratagene) alone or in the presence of pFC-PKA an expression construct encoding catalytic subunit of protein kinase A (Stratagene) to activate the CREB kinase inducible activation domain. Fold induction was compared to the reporter's activity measured in the cells transfected with pCMV-BD an expression vector carrying GAL4 DNA binding domain only.
Expression constructs encoding full length CREAP1, CREAP2 and CREAP3 as well as a Gal4 DNA binding domain alone or fused with C-terminal portions of CREAP1, CREAP2 and CREAP3 were tested for the ability to induce expression of a luciferase gene controled by a minimal promoter linked to GAL4 DNA binding sites (pFRLuciferase). The data shown are normalized to the value seen with pCMV-BD vector co-transfected with pFR-Luc reporter.

GAL4-CREB fusion protein = test: GAL4-CREB activation assay in HLR cell line; format: cell-based; conditions: HLR cell line with integrated pFR-Luc reporter, normalized to pCMV-BD vector
Method: To determine if CREAP proteins can directly activate CREB1 protein, the expression constructs of CREAP1, CREAP2 and CREAP3 were transfected individually or with GAL4-CREB plasmid (Stratagene) into HLR cell line (Stratagene) carrying genomic DNA integrated copies of pFR-Luc reporter. Briefly, HLR cells were maintained per manufacturer's instructions. Selected plasmids and either empty vector (pCMV-BD) or GAL4-CREB plasmid were transfected at 75 ng/well using Fugene6 transfection reagent (Roche) as described above. As a positive control pFC-PKA an expression construct encoding catalytic subunit of protein kinase A (Stratagene) was also co-trasfected with GAL4-CREB. Fold of activation was compared to the reporter's activity measured in the cells transfected with empty vector.
The ability of full length CREAP1, CREAP2 and CREAP3 to induce the activity of GAL4-CREB fusion protein (Stratagene) was tested. The data presented are normalized to the value seen with pCMV-BD vector. […] Note the fold induction obtained with positive control is lower when compared to the data from Table 6 when all the plasmids including the reporter were transiently transfected.

B1: TRAF6: full length TRAF6 cDNA expression construct; TNF receptor-associated factor 6 (protein, UniProt Q9Y4K3 1-522, looked up)
chain: MSLLNCENSCGSSQSESDCCVAMASSCSAVTKDDSVGGTASTGNLSSSFMEEIQGYDVEFDPPLESKYECPICLMALREAVQTPCGHRFCKACIIKSIRDAGHKCPVDNEILLENQLFPDNFAKREILSLMVKCPNEGCLHKMELRHLEDHQAHCEFALMDCPQCQRPFQKFHINIHILKDCPRRQVSCDNCAASMAFEDKEIHDQNCPLANVICEYCNTILIREQMPNHYDLDCPTAPIPCTFSTFGCHEKMQRNHLARHLQENTQSHMRMLAQAVHSLSVIPDSGYISEVRNFQETIHQLEGRLVRQDHQIRELTAKMETQSMYVSELKRTIRTLEDKVAEIEAQQCNGIYIWKIGNFGMHLKCQEEEKPVVIHSPGFYTGKPGYKLCMRLHLQLPTAQRCANYISLFVHTMQGEYDSHLPWPFQGTIRLTILDQSEAPVRQNHEEIMDAKPELLAFQRPTIPRNPKGFGYVTFMHLEALRQRTFIKDDTLLVRCEVSTRFDMGSLRREGFQPRSTDAGV
modifications: full-length
With B1 as the molecule, how does the “increase of IL-8 promoter-reporter activity” value (human IL-8 promoter) read?
Its value is 4.9 times.

B2: CREAP3: human CREAP family protein of 619 amino acids, SEQ ID NO 25; reconstructed full-length FLJ00364 cDNA (protein)
chain: MAASPGSGSANPRKFSEKIALHTQRQAEETRAFEQLMTDLTLSRVQFQKLQQLRLTQYHGGSLPNVSQLRSNASEFQPSFHQADNVRGTRHHGLVERPSRNRFHPLHRRSGDKPGRQFDGSAFGANYSSQPLDESWPRQQPPWKDEKHPGFRLTSALNRTNSDSALHTSALSTKPQDPYGGGGQSAWPAPYMGFCDGENNGHGEVASFPGPLKEENLLNVPKPLPKQLWETKEIQSLSGRPRSCDVGGGNAFPHNGQNLGLSPFLGTLNTGGSLPDLTNLHYSTPLPASLDTTDHHFGSMSVGNSVNNIPAAMTHLGIRSSSGLQSSRSNPSIQATLNKTVLSSSLNNHPQTSVPNASALHPSLRLFSLSNPSLSTTNLSGPSRRRQPPVSPLTLSPGPEAHQGFSRQLSSTSPLAPYPTSQMVSSDRSQLSFLPTEAQAQVSPPPPYPAPQELTQPLLQQPRAPEAPAQQPQAASSLPQSDFQLLPAQGSSLTNFFPDVGFDQQSMRPGPAFPQQVPLVQQGSRELQDSFHLRPSPYSNCGSLPNTILPEDSSTSLFKDLNSALAGLPEVSLNVDTPFPLEEELQIEPLSLDGLNMLSDSSMGLLDPSVEETFRADRL
modifications: human
notes: reconstructed full-length FLJ00364 cDNA
Which results are given for B2?
higher level of induction of gene expression compared to CREAP1 and CREAP2 ([1]; CRE and IL-8 promoter reporters): 2-4 fold; CRE: level of expression of luciferase relative to empty vector [1]: 71.4; IL-8: level of expression of luciferase relative to empty vector (Interleukin-8 promoter): 574.5714; Fold Induction [2]: 1.58; Fold Induction (GAL4-CREB fusion protein): 2.458

B3: CREAP2: human CREAP family protein of 693 amino acids, SEQ ID NO 16 (protein)
chain: MATSGANGPGSATASASNPRKFSEKIALQKQRQAEETAAFEEVMMDIGSTRLQAQKLRLAYTRSSHYGGSLPNVNQIGSGLAEFQSPLHSPLDSSRSTRHHGLVERVQRDPRRMVSPLRRYTRHIDSSPYSPAYLSPPPESSWRRTMAWGNFPAEKGQLFRLPSALNRTSSDSALHTSVMNPSPQDTYPGPTPPSILPSRRGGILDGEMDPKVPAIEENLLDDKHLLKPWDAKKLSSSSSRPRSCEVPGINIFPSPDQPANVPVLPPAMNTGGSLPDLTNLHFPPPLPTPLDPEETAYPSLSGGNSTSNLTHTMTHLGISRGHGPGPGYDAPGLHSPLSHPSLQSSLSNPNLQASLSSPQPQLQGSHSHPSLPASSLACHVLPTTSLGHPSLSAPALSSSSSSSSTSSPVLGAPSYPASTPGASPHHRRVPLSPLSLLAGPADARRSQQQLPKQFSPTMSPTLSSITQGVPLDTSKLSTDQRLPPYPYSSPSLVLPTQPHTPKSLQQPGLPSQSCSVQSSGGQPPGRQSHYGTPYPPGPSGHGQQSYHRPMSDFNLGNLEQFSMESPSASLVLDPPGFSEGPGFLGGEGPMGGPQDPHTFNHQNLTHCSRHGSGPNIILTGDSSPGFSKEIAAALAGVPGFEVSAAGLELGLGLEDELRMEPLGLEGLNMLSDPCALLPDPAVEESFRSDRLQ
modifications: human
With B3 as the molecule, how does the “CRE: level of expression of luciferase relative to empty vector” value [1] read?
Its value is 38.6.

What about the “IL-8: level of expression of luciferase relative to empty vector” value (Interleukin-8 promoter) of the same molecule?
Its value is 126.8571.

What about the “Fold Induction” value [2] of the same molecule?
The value was 2.47.

And the “Fold Induction” value (GAL4-CREB fusion protein)?
Its value is 2.435.
